Reference: article PMC6461989
Each block holds one binder with its values, some of them ahead of it.

Target: human active plasmin (human)
Sequence (P00747 20-580, chain 1 of 2): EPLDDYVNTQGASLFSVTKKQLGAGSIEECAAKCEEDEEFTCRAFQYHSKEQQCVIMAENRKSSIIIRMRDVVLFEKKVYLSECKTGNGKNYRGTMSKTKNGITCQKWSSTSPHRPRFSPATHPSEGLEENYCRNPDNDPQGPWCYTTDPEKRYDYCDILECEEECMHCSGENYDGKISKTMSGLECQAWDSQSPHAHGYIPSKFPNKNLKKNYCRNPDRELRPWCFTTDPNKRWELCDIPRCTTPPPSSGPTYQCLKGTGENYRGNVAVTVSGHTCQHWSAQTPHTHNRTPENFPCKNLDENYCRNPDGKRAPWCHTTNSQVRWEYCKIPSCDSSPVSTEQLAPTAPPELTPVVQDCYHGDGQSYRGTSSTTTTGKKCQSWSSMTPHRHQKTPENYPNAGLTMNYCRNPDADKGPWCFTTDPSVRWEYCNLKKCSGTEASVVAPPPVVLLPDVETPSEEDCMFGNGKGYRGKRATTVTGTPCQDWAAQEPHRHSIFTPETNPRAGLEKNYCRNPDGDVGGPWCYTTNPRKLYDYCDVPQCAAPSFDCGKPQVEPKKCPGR
Sequence (P00747 581-810, chain 2 of 2): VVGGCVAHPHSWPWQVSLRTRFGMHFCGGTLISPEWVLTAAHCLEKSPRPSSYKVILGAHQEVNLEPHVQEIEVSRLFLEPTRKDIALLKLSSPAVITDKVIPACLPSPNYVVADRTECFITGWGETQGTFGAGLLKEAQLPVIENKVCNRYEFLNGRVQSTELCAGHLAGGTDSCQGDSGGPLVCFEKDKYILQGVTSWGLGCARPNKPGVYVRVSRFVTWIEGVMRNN

- inhibition of plasmin activity in the presence of equimolar uPA and plasminogen, ratio of HAI-2 to uPA/plasminogen 1:1 (~20% inhibition) to 10:1 (Supplementary Figure S13A): 75%
- inhibition of plasmin activity, high ratio of HAI-2 to plasmin (Supplementary Figure S13B): 66%
B1: recombinant HAI-2 (rHAI-2) proteins containing the extracellular region of HAI-2 (domain or fragment)
chain: ADRERSIHDFCLVSKVVGRCRASMPRWWYNVTDGSCQLFVYGGCDGNSNNYLTKEECLKKCATVTENATGDLATSRNAADSSVPSAPRRQDSEDHSSDMFNYEEYCTANAVTGPCRASFPRWYFDVERNSCNNFIYGGCRGNKNSYRSEEACMLRCFRQQENPPLPLGSK

- inhibition of plasmin activity, low ratio (~40%) to high ratio of α-2-antiplasmin to plasmin (Supplementary Figure S13B): > 99%
B2: α-2-antiplasmin (natural protein)
chain: NQEQVSPLTLLKLGNQEPGGQTALKSPPGVCSRDPTPEQTHRLARAMMAFTADLFSLVAQTSTCPNLILSPLSVALALSHLALGAQNHTLQRLQQVLHAGSGPCLPHLLSRLCQDLGPGAFRLAARMYLQKGFPIKEDFLEQSEQLFGAKPVSLTGKQEDDLANINQWVKEATEGKIQEFLSGLPEDTVLLLLNAIHFQGFWRNKFDPSLTQRDSFHLDEQFTVPVEMMQARTYPLRWFLLEQPEIQVAHFPFKNNMSFVVLVPTHFEWNVSQVLANLSWDTLHPPLVWERPTKVRLPKLYLKHQMDLVATLSQLGLQELFQAPDLRGISEQSLVVSGVQHQSTLELSEVGVEAAAATSIAMSRMSLSSFSVNRPFLFFIFEDTTGLPLFVGSVRNPNPSAPRELKEQQDSPGNKDFLQSLKGFPRGDKLFGPDLKLVPPMEEDYPQFGSPK
